Data as given in patent publication US20240002516A1 (4B TECHNOLOGIES SUZHOU, published 2024).
Positions count from the first letter of the chain named. Where two headings read alike, the source gives them in different places.

B1: control antibody pAb01 (antibody, V domains shown)
VH: EVQLVESGGGLVKPGGSLRLSCAASGFTFSGVSINWVRQAPGKGLEWVSSETTSSGTIYYADSVKGRFTISRDNAKNSLYLQMNSLRAEDTAVYYCARSYYYGMDVWGQGTTVTVS
VL: DIVMTQTPLSSPVTLGQPASISCRSSQSLVHRNGNTYLSWLQQRPGQPPRLLIYKISNRFSGVPDRFSGSGAGTDFTLKISRVEAEDVGVYYCMQARQFPLTFGGGTKVEIK
B2: PHD49-01 (humanized muPHD49) (antibody, human IgG4, V domains shown)
VH: QVQLVQSGAEVKKPGSSVKVSCKASGYTFSSYWMQWVRQAPGQGLEWIGAIYPGDDDTIYTQKFKGRATLTADKSTSTAYMELSSLRSEDTAVYYCARNYDYQAWFAYWGQGTLVTVSS
VL: DIQMTQSPSSLSASVGDRVTITCSASSSVSYMYWYQQKPGKAPKPWIYLTSNLASGVPSRFSGSGSGTDYTLTISSLQPEDFATYYCQQWSSNPLTFGQGTKLEIK
B3: PHD48-01 (humanized muPHD48) (antibody, human IgG4, V domains shown)
VH: QVQLVQSGAEVKKPGASVKVSCKASGYSFTTYWMHWVRQAPGQGLEWIGTIYPGNSDSSNNQKFKGRATLTADTSTSTAYMELSSLRSEDTAVYYCTRFYYEDWYFDVWGQGTMVTVSS
VL: B2 VL with Y35F, L49R, W90Y, S91H, N93Y, L95P, Q99G, L103V
B4: chi-PHD49 (antibody, V domains shown)
VH: QVQLQQSGAELARPGASVKLSCKASGYTFSSYWMQWVKQRPGQGLEWIGAIYPGDDDTIYTQKFKGKATLTADKSSSTAYMQLSSLASEDSAVYYCARNYDYQAWFAYWGQGTLVTVSA
VL: QIVLTQSPALMSASPGEKVTMTCSASSSVSYMYWYQQKPRSSPKPWIYLTSNLASGVPARFSGSGSGTSYSLTISSMEAEDAATYYCQQWSSNPLTFGAGTKLELK
notes: Chimeric: human IgG4 / human kappa constant regions (pCDNA3.4-hIgG4 and pCDNA3.4-hKappa vectors)
B5: chi-PHD48 (the chimeric antibody derived from muPHD48) (antibody, V domains shown)
VH: EVQLQQSGTVLARPGASVKMSCKASGYSFTTYWMHWVKQRPGQGLEWIGTIYPGNSDSSNNQKFKGKAKLTAVTSASTAYMELSSLTNEDSAVYYCTRFYYEDWYFDVWGAGTTVTVSS
VL: QIVLTQSPAIMSASPGEKVTISCSASSSVSYMYWFQQKPGSSPKPWIYRTSNLASGVPARFSGSGSGTSYSLTISSMEAEDAATYYCQQYHSYPPTFGGGTKLEIK
notes: Chimeric: VH in the pCDNA3.4-hIgG4 vector and VL in the pCDNA3.4-hKappa vector (human IgG4 / human kappa constant regions)

Tests used:
[1] = target: T1, extracellular domain (ECD) of human TrkA protein, N-terminal flag tag and C-terminal His tag (PHA) (human, UniProt P04629 33-423); experiment: BLI (Octet Red384), His-tagged TrkA ECD captured on Anti-Penta-HIS (HIS1K) biosensor, pAb01 as second antibody (90 s) after PHD48
T1 construct: Made in 293-F cells and purified by IMAC; also called TrkA ECD protein; TrkA (ECD); not shown: flag tag at the N-terminus (after the signal peptide); His tag at the C-terminus
T1 sequence (P04629 33-423): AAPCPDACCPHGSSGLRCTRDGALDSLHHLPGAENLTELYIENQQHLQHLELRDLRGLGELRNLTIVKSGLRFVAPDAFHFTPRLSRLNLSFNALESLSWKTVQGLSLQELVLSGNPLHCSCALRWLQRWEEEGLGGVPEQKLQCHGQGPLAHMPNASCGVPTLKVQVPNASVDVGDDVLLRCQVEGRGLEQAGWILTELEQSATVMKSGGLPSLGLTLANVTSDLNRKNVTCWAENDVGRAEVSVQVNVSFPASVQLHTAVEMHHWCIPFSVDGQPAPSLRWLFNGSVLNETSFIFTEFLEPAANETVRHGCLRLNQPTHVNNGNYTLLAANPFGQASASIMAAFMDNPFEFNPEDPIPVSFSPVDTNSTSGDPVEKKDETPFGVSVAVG

[2] = target: T2, human TrkA on CellSensor TrkA-NFAT-bla CHO-K1 cells (human, UniProt P04629 33-796); experiment: cell-based or functional assay
T2 sequence (P04629 33-796 limits assumed, form in doubt): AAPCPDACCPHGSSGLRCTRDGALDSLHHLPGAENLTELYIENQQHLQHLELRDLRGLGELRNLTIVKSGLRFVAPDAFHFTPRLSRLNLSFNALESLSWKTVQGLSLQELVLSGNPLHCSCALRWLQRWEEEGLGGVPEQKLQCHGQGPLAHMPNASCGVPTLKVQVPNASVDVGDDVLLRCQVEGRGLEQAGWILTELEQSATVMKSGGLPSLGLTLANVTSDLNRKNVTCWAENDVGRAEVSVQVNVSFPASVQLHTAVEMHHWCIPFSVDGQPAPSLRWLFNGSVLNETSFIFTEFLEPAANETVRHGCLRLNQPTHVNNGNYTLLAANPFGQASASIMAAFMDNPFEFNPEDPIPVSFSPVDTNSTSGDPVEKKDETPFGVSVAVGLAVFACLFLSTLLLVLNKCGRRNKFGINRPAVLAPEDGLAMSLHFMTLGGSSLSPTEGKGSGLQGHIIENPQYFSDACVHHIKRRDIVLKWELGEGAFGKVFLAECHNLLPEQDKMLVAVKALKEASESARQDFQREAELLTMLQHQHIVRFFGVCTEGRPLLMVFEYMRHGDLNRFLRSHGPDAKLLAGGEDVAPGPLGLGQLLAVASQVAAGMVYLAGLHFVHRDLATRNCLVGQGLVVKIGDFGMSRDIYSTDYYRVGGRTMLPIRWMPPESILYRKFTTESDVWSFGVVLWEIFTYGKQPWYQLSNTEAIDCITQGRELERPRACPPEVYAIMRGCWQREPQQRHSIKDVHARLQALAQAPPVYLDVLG

[3] = target: T2, human TrkA on CellSensor TrkA-NFAT-bla …; experiment: cell-based or functional assay; remark: listed apart in the source
[4] = target: T2, human TrkA on CellSensor TrkA-NFAT-bla …; experiment: FACS on cells expressing human TrkA (FIG. 5A)
[5] = target: T1, extracellular domain (ECD) of human …; experiment: BLI (Octet Red384), antibody captured on anti-human Fc AHQ tips, antigen 100 nM
Protocol: (§1) The bio-layer interferometry (BLI) method was used to determine the affinities of the antibodies, employing Octet Red384. Briefly, anti-human Fc-coated biosensor AHQ tips (ForteBio) were put into PBS with 0.1% w/v bovine serum albumin and 0.05% Tween-20 for a minimum of 10 min in the pre-wetting plate. The purified antibodies (100 nM in PBS with 0.1% bovine serum albumin and 0.05% Tween-20 (assay buffer)) were captured on AHQ biosensors (ForteBio) at a level of about 1 nm. The loaded biosensors were washed with an assay buffer to remove any unbound protein. Then, the association rates, dissociation rates and response were measured, using an antigen of 100 nM (in PBS with 0.1% bovine serum albumin and 0.05% Tween-20).

[6] = target: T2, human TrkA on CellSensor TrkA-NFAT-bla …; experiment: cell-based or functional assay; remark: listed apart in the source
[7] = target: T1, extracellular domain (ECD) of human …; experiment: BLI (Octet Red384), as in Example 4
Protocol: as §1
Two rounds of humanizations were further performed. […] In the second round, many other variants were further constructed (including several mutations in the CDR sequences). Quickchange based site-directed mutagenesis or overlap PCR were performed to create expression plasmid of new versions of 2nd round humanized antibodies. All recombinant antibodies were expressed and purified as described in Example 1, then measured antigen binding affinity using BLI technology with the Octet Red384 instrument as mentioned above. To compare the functional activity of humanized antibodies with chimeric antibodies, NFAT assay was also performed.

[8] = target: T2, human TrkA on CellSensor TrkA-NFAT-bla …; experiment: FACS on cells expressing human TrkA (FIG. 4A)
[9] = target: T1, extracellular domain (ECD) of human …; experiment: SPR (BIAcore T200), antibody on protein G chip, PHA 0.625-20 nM injected
Protocol: The binding kinetics and affinities of the humanized antibodies were determined using a BIAcoreT200™ SPR system. Approximately 30 RU of the humanized antibody was immobilized on a protein G sensor chip and serial 2-fold dilutions of the PHA (0.625-20 nM) in 1×HBS-EP+ buffer were injected over the antibody-bound surface at a flow rate of 30 μl/min.

[10] = target: T1, extracellular domain (ECD) of human …; experiment: affinity after affinity maturation; method not stated in Example 5
[11] = target: T1, extracellular domain (ECD) of human …; experiment: affinity after affinity maturation; method not stated in Example 5; measured in the affinity maturation series of Example 5, not the humanization series of the 11th table

Binder	Top; inhibition of NGF-induced TrkA activation in TrkA-NFAT-bla CHO-K1 reporter cells [3] [Response Ratio]	EC50 [4] [µg/mL]	Kd [5] [nM]	koff [5] [s⁻¹]	kon [5] [M⁻¹ s⁻¹]	Top; inhibition of NGF-induced TrkA activation in TrkA-NFAT-bla CHO-K1 reporter cells [6] [Response Ratio]	Kd [7] [nM]	koff [7] [s⁻¹]	kon [7] [M⁻¹ s⁻¹]	EC50 [8] [µg/mL]	Kd [9] [nM]	koff [9] [s⁻¹]	kon [9] [M⁻¹ s⁻¹]	further results
B1	–	–	–	–	–	–	–	–	–	–	–	–	–	binding result [1]: binds
B2	1.1	~0.198	4.84	0.00098	203000	–	–	–	–	–	–	–	–	IC50 in NFAT assay [2]: ~0.604 nM
B3	–	–	3.07	0.000634	207000	1.02	3.07	0.000634	207000	~0.142	2.34	0.000524	224000	IC50 in NFAT antagonistic assay [2]: ~0.345 nM
B4	1.04	0.157	1.79	0.000603	337000	–	3.62	0.000827	229000	–	–	–	–	EC50 (so labelled in the drawn table; a falling inhibition curve, the text calls this value IC50); inhibition of NGF-induced TrkA activation in TrkA-NFAT-bla CHO-K1 reporter cells [3]: 0.793 nM; koff [10]: 0.000665 s⁻¹; kon [10]: 219000 M⁻¹ s⁻¹; Kd [11]: 3.04 nM
B5	–	–	5.33	0.00114	214000	1.1	2.8	0.000761	272000	0.112	4.06	0.00069	170000	IC50; inhibition of NGF-induced TrkA activation in TrkA-NFAT-bla CHO-K1 reporter cells [6]: 1.12 nM
